Source: patent US20030207446A1 (US Dept. of Health and Human Services, published 2003)

B1: bovine papillomavirus type 1 (BPV1) L2 minor capsid protein (other)
chain: MSARKRVKRASAYDLYRTCKQAGTCPPDVIPKVEGDTIADKILKFGGLAIYLGGLGIGTWSTGRVAAGGSPRYTPLRTAGSTSSLASIGSRAVTAGTRPSIGAGIPLDTLETLGALRPGVYEDTVLPEAPAIVTPDAVPADSGLDALSIGTDSSTETLITLLEPEGPEDIAVLELQPLDRPTWQVSNAVHQSSAYHAPLQLQSSIAETSGLENIFVGGSGLGDTGGENIELTYFGSPRTSTPRSIASKSRGILNWFSKRYYTQVPTEDPEVFSSQTFANPLYEAEPAVLKGPSGRVGLSQVYKPDTLTTRSGTEVGPQLHVRYSLSTIHEDVEAIPYTVDENTQGLAFVPLHEEQAGFEEIELDDFSETHRLLPQNTSSTPVGSGVRRSLIPTQEFSATRPTGVVTYGSPDTYSASPVTDPDSTSPSLVIDDTTTTPIIIIDGHTVDLYSSNYTLHPSLLRKRKKRKHA
notes: mature; Expressed from recombinant Semliki Forest virus in BHK-21 or BPHE-1 cells; also called BPV L2

Columns and labels:
[1] = target: B1; assay: coimmunoprecipitation; cosedimentation in sucrose gradients
[2] = target: T1, bovine papillomavirus type 1 (BPV1) L1 major capsid protein (bovine papillomavirus type 1 (BPV1), UniProt P03103 1-495); assay: co-expression from recombinant SFV in BHK-21 cells; heading of the section
T1 construct: mature; Expressed from recombinant Semliki Forest virus in BHK-21 or BPHE-1 cells; self-assembles into VLPs; also called BPV L1

Binder | binding result [1] | binding result [2]
BPV E2 protein (full-length 48 kD form) (other, mature; BPHE-1 cells express three forms of E2; SFV-E2 gives only the 48 kD form) METACERLHVAQETQMQLIEKSSDKLQDHILYWTAVRTENTLLYAARKKGVTVLGHCRVPHSVVCQERAKQAIEMQLSLQELSKTEFGDEPWSLLDTSWDRYMSEPKRCFKKGARVVEVEFDGNASNTNWYTVYSNLYMRTEDGWQLAKAGADGTGLYYCTMAGAGRIYYSRFGDEAARFSTTGHYSVRDQDRVYAGVSSTSSDFRDRPDGVWVASEGPEGDPAGKEAEPAQPVSSLLGSPACGPIRAGLGWVRDGPRSHPYNFPAGSGGSILRSSSTPVQGTVPVDLASRQEEEEQSPDSTEEEPVTLPRRTTNDGFHLLKAGGSCFALISGTANQVKCYRFRVKKNHRHRYENCTTTWFTVADNGAERQGQAQILITFGSPSQRQDFLKHVPLPPGMNISGFTASLDF | no binding | 
B1 |  | binds
